Assay results as given in patent US20070066800A1, “Apo2l(trail) receptor binding peptides and uses thereof” (priority 2003, published 2007).

How the values were obtained:
Assay type in all cases: binding
Details in all cases: Table IV cross-reactivity; phage clones
[1] = molecular target: T1, Hu DR5 IgG (SEQ ID NO: 109) (Homo sapiens, UniProt O14763); test: Ic50 cross-reactivity ELISA, Hu DR5 IgG
T1 construct: Human DR5 IgG fusion polypeptide
Experimental: (§1) 1. Coat microtiter plate wells with 80 ul of 1 ug/ml Apo-2L receptor DR5 ECD (SEQ ID NO: 105) (in 50 mM sodium carbonate pH 9.6) at 4° C. overnight.
(§2) 3. Prepare competing receptor solutions (100 ul/sample).
(§3) 6. Transfer 80 ul the mixture of competing receptor and phage from the non-sticky plate to DR5 ECD coated plate and incubate 20 minutes at room temperature.
(§4) In the Tables provided herein, “Ic 50” refers to the measure of the concentration of peptide needed to inhibit 50% of Apo-2L (e.g. amino acids 114 to 281 of SEQ ID NO: 1) binding to an Apo-2L receptor molecule (e.g. DR4-IgG (SEQ ID NO: 108) or DR5 ECD (SEQ ID NO: 105) etc.). The peptides are classified such that class 1-class 4 represent a, b, c, and d respectively.
(§5) Table VIII identifies the sequence identification numbers (SEQ ID NOs.) for the various peptides disclosed herein.

[2] = molecular target: T2, Hu DR4 IgG (SEQ ID NO: 108) (Homo sapiens, UniProt O00220, H141R/R209T); test: Ic50 cross-reactivity ELISA, Hu DR4 IgG
T2 construct: Human DR4 IgG fusion polypeptide
T2 sequence (O00220 with tags, fused parts or gaps H141R/R209T): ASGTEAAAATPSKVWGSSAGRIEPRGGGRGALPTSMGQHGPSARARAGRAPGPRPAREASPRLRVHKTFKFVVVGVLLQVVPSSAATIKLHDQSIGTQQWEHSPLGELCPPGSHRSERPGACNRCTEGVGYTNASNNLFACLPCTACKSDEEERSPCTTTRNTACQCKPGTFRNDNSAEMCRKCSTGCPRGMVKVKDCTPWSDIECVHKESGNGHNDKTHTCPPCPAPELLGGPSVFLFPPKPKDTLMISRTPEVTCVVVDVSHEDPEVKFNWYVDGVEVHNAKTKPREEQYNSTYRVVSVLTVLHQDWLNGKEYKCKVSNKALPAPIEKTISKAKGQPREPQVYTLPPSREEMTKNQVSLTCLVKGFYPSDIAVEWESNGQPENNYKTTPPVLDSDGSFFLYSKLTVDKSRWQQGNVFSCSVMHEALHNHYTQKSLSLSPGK
Experimental: as §1, §2, §3, §4, §5

[3] = system: Cyno DR5 IgG (SEQ ID NO: 112); test: Ic50 cross-reactivity ELISA, Cyno DR5 IgG
Experimental: as §1, §2, §3
Peptides of the invention and their Ic 50 values (e.g. determinations of Ic 50 in ELISA based assays using a DR5 ECD (SEQ ID NO: 105) competitor) are identified in Table III below. In the Tables provided herein, “Ic 50” refers to the measure of the concentration of peptide needed to inhibit 50% of Apo-2L (e.g. amino acids 114 to 281 of SEQ ID NO: 1) binding to an Apo-2L receptor molecule (e.g. DR4-IgG (SEQ ID NO: 108) or DR5 ECD (SEQ ID NO: 105) etc.). The peptides are classified such that class 1-class 4 represent a, b, c, and d respectively.
Table IV below provides certain properties of selected peptides, for example Ic50 cross-reactivity data with DR4 and DR5 polypeptides. Table VIII identifies the sequence identification numbers (SEQ ID NOs.) for the various peptides disclosed herein.
Using these methods, the Ic 50 values for various phage clones expressing peptide sequences of interest were generated and are provided in the Tables below. […]

[4] = system: Cyno DR4 IgG (SEQ ID NO: 111); test: Ic50 cross-reactivity ELISA, Cyno DR4 IgG
Chain of Cyno DR4 IgG (SEQ ID NO: 111) (as listed by the source): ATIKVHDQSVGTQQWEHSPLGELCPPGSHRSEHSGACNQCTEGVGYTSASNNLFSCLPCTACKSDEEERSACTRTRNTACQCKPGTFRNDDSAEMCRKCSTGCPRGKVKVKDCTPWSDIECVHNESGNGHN
Experimental: as §1, §2, §3, §4, §5

[5] = molecular target: T3, Hu TNFR IgG (SEQ ID NO: 110) (Homo sapiens, UniProt P19438); test: Ic50 cross-reactivity ELISA, Hu TNFR IgG
T3 construct: Human TNFR1 IgG fusion polypeptide
T3 sequence (P19438 with tags, fused parts or gaps): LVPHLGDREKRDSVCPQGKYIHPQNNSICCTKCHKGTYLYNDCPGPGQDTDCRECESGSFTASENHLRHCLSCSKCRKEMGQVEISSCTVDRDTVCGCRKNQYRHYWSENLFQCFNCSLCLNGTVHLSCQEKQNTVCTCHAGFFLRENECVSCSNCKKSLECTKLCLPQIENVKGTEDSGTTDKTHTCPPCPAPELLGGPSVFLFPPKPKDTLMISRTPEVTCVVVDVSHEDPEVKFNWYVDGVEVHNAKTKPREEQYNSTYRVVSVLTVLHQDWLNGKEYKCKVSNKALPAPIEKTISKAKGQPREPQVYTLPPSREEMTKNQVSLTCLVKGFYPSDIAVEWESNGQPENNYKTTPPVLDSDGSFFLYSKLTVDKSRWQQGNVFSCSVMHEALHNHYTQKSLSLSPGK
Experimental: as §1, §2, §3, §4, §5

T1 sequence (O14763 with tags, fused parts or gaps): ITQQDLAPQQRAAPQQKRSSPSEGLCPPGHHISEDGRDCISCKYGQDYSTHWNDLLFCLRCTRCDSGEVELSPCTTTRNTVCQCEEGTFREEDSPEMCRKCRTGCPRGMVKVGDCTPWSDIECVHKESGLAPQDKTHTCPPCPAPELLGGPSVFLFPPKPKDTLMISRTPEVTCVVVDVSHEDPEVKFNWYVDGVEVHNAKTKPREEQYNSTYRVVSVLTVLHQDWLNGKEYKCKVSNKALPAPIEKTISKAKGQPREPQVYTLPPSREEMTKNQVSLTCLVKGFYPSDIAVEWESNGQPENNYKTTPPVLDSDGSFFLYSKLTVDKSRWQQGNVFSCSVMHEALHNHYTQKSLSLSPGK

In the case of “Hd5-11: phage-derived DR5 binding peptide, class C1, SEQ ID NO: 15, first generation (G1) lead (QEVCMTSCDKLMKCNWMAAM)”, the IC50 [1] is reported as 8 nM, the IC50 [2] is reported as 1000 nM and the IC50 [3] is reported as 10000 nM. For the same substance, the IC50 [4] was 1000 nM and the IC50 [5] was 1000 nM.
